# Measured values reported in patent US20040223972A1 (FUNCTIONAL GENETICS, published 2004).
# B1: purified TSG101 protein that contains only the UEV domain, Q99816 1-145 (protein)
# chain: MAVSESQLKKMVSKYKYRDLTVRETVNVITLYKDLKPVLDSYVFNDGSSRELMNLTGTIPVPYRGNTYNIPICLWLLDTYPYNPPICFVKPTSSMTIKTGKHVDANGKIYLPYLHEWKHPQSDLLGLIQVMIVVFGDEPPVFSRP
# Molecular target: biotinylated peptide Bio-…
binder,measurement,value
B1,Kd,2000 nM
